{
  "source": "paper PMC8519878",
  "about": "(Cell Reports, 2021)",
  "target": "SARS-CoV-2 S2P spike (SARS-CoV-2, ancestral spike (P0DTC2 …, stabilised))",
  "experiment": "cryo-EM structure",
  "data": [
    {"binder": "antigen-binding fragment (Fab) of antibody 5-7, expressed as Fab (Fab, V domains shown) VH: QVQLVQSGAEVKKPGASVKVSCKASGYTFTSYYMHWVRQAPGQGLEWMGVINPSGGSTSYAEKFRGRVTMTRDTSTSTVYMELSSLRSEDTAVYYCARDREPHSDSSGYWDSLKYYYYYALDVWGQGTTVTVSS VL: AIQLTQSPSSLSASVGDRVTITCRASQGISSYLAWYQQKPGKAPELLIYAASTLQSGVPSRFSGSGSGTDFTLTISSLQPEDFATYYCQQLNTYPFTFGPGTKVDIK", "values": [
      {"measurement": "stoichiometry N", "result": 3, "unit": "Fabs per trimer"}
    ]}
  ]
}
